Assay results reported in US20110288011A1, “PEPTIDE THERAPEUTIC CONJUGATES AND USES THEREOF” (priority 2008, published 2011).

Tested on: ob/ob mice
Assay: Body weight of ob/ob mice treated with recombinant leptin
Format: in vivo
Details: 0.1 mg/mouse or 0.25 mg/mouse daily
Procedure: As a control, we tested the ability of recombinant leptin to reduce body weight in ob/ob mice using either 0.1 mg/mouse or 0.25 mg/mouse daily.

B1: recombinant leptin: recombinant leptin used as a control in ob/ob mice (protein, UniProt P41160 22-167, looked up)
Leptin: VPIQKVQDDTKTLIKTIVTRINDISHTQSVSAKQRVTGLDFIPGLHPILSLSKMDQTLAVYQQVLTSLPSQNVLQIANDLENLRDLLHLLAFSKSCSLPQTSGLQKPESLDGVLEASLYSTEVVALSRLQGSLQDILQQLDVSPEC
body weight: reduce body weight in these mice in a dose-dependent manner
